# Measured values: US20160129078A1, “Rhomboid Proteins and Uses Thereof” (Queen's University at Kingston, priority 2014, published 2016)
# B1: At1g74130 M: 7/8 M-form splice variant of Arabidopsis At1g74130 rhomboid protein (protein, listed as Arabidopsis thaliana)
# chain: MHAIFCRRVAVGCSSPQLTKLVTKQASQSRHSLSHLLPFDLSSRFVPPYVVSRSARVHGFFAGKLGNTNLKLKFGNVMESRAGFFSSELPSHGFESGGFTGFQKRGWKSWINGANGVVFGLVIANAAVFTMWRVLGKDNMWMVKNFMLSRYSFMTGRIHTLITSGFSHVGATHIILNMMGLCYFGARIARSFGPRYLLKLYFAGALGGSVFFLSSHALSVISLKGQRVVPKDQLKVPIGKLGANGPVYAITLLDMLLYPKVTTYFGLMLRVPVFAGIYSLGLNIIKMLEVCMMGKTTIP
# B2: At1g74130 S: 6/7 S-form splice variant of Arabidopsis At1g74130 rhomboid protein (protein, listed as Arabidopsis thaliana)
# chain: MHAIFCRRVAVGCSSPQLTKLVTKQASQSRHSLSHLLPFDLSSRFVPPYVVSRSARVHGFFAGKLGNTNLKLKFGNVMESRAGFFSSELPSHGFESGGFTGFQKRGWKSWINGANGVVFGLVIANAAVFTMWRVLGKDNMWMVKNFMLSRYSFMTGRIHTLITSGFSHVGATHIILNMMGLCYFGARIARSFGPRYLLKLYFAGALGGSVFFLSSHALSVISLKGQRVVPKDQLKVPIGKLGANGPVYAITLLDMLLYPKVTTYFGLMLRVPVFAVRESIA
# Assays:
# bacteria = assay: Sensitization of bacteria to tetracycline by exogenous rhomboid protein; assay type: cell-based, Escherichia coli; settings: tetracycline 15 ug/ml
# Method: Experiments were conducted to assess the ability and the utility of At1g74130 protein variants to sensitize bacteria to another antibiotic, tetracycline. In bacteria, tolerance or resistance to tetracycline is facilitated by a mechanism different from the ampicillin resistance assayed in Example 9. Unlike the breakdown of ampicillin outside the bacterial cells by secreted ampicilliase, tetracycline resistance in bacteria is based largely on the continual and effective pumping of tetracycline out of the cell by proteinaceous membrane pumps. To assess the utility of the At1g74130 for sensitizing bacteria to tetracycline, these bacterial assays were conducted in the same manner described in Example 9. The same controls and combinations were used. The final treatment level of tetracycline used in place of the ampicillin treatment was 15 ug/ml.
# Experiments were conducted to assess the ability and the utility of a human rhomboid type or variant to sensitize bacteria to tetracycline. These bacterial assays were conducted in the same manner described above for the other rhomboid variants and in Example 9. The same controls and combinations were used. The At1g74130 L was the control for UBAC2 in this set of assays. The previously observed behaviours and responses were not observed for UBAC2 in this setting with the antibiotic tetracycline (FIG. 16).
# Pseudomonas aeruginosa = assay: Impairment of lipase secretion and growth on minimal media-olive oil plates; assay type: cell-based; settings: for growth on minimal media-olive oil agar plates: 10 ug protein, with or without 5% DMSO, olive oil as only carbon source
# Source text: Experiments were thus conducted to assess the ability of At1g74130 proteins or variants to impair the protein secretion process of Pseudomonas aeruginosa, a gram-negative bacterium known to be pathogenic and producers of biofilms. Any impact on the protein secretion mechanism may alter pathogenicity, growth, survival, biofilm production, and sensitivity to antimicrobial drugs. The design of the Pseudomonas assays was similar to that used for bacteria in the above examples, results, and figures. Treated Pseudomonas cells were plated onto minimal media supplemented with olive oil as the only external carbon source. The minimal media-olive oil plates consisted of the following: 50 mM MOPS, pH 7.5; 40 mM K2HPO4; 25 mM NaH2PO4; 7.5 mM (NH4)2SO4; 0.4 mM MgSO4; 0.5% (v/v) olive oil; 40 ug/ml neutral red; 20 ul trace elements (Mn, Co, Zn, Cu, and Mo); and 1.5% agar. Pseudomonas cells need to express and secrete lipases in order to break down the olive oil and allow the acquisition of carbon from the media. Cells that are impaired with respect to protein secretion will not be able to break down the olive oil for acquisition and permit subsequent growth.
# Control assays were conducted on cells without added At1g74130 or variants (sensitizer variants) to determine the delivery system to use. Control assays were also conducted to determine if the 5% (v/v) DMSO delivery system used for E. coli exerted any effect. Pseudomonas cells were mock treated with Luria Broth (LB) media or 5% (v/v) DMSO for 45-90 minutes prior to plating on minimal media supplemented with olive oil as the sole external carbon source. Total volumes of 200 μl were used in these assays. The plates were allowed to grow overnight to assess the level of growth or colony formation.
# In the experimental assays, the utility of At1g74130 or variants in the Pseudomonas was tested by adding 10 ug protein (At1g74130 or variants) to cells (600-800 cells) incubated for 45 minutes at 37° C., shaken, and followed by another 45 minute period at 37° C. […]
# yeast = assay: Sensitization of yeast to fungicidal agents AmB and Nys; assay type: cell-based, Saccharomyces cerevisiae; settings: for yeast cell survival, variant added alone: 10 ug protein alone in elution buffer, no fungicide; for yeast survival, fungicidal agents together with variant protein: 10 ug protein with sub-lethal AmB and/or Nys
# Method: Experiments were conducted to assess the ability of the Arabidopsis At1g74130 proteins or variants to sensitize yeast to the antifungal agents Amphotericin B (AmB) and Nystatin (Nys). Overall, these assays were conducted in a manner similar to that designed for bacteria (Example 9). In addition to the components mixed with the added proteins or variants, the antifungal AmB was also utilized as part of the delivery system. The AmB drug contains small quantities of the detergent deoxycholate, which may also assist in the delivery of proteins into the cell, as well as function as a pore forming agent itself. […] The effective co-delivery sub-lethal concentrations of the two antifungal agents or protein had little or no effect when provided individually. FIGS. 17 and 18 show results of the yeast sensitivity assays for AmB and Nys. […] In FIG. 17, the “Yeast Control” bars represent yeast cells given mock treatments with culture media (YPD) alone, YPD plus 1% AmB, YPD plus 0.5% Nys, and YPD plus 1% AmB and 0.5% Nys, respectively. The “BSA Control” bars represent another set of mock treatments with yeast cells. This set utilized the same set-up as the Yeast Control set but with added control bovine serum albumin proteins (BSA) (dissolved in the elution buffer, the same buffer used for the purification of the recombinant At1g74130 rhomboid proteins or variants). These assays represent another variation of negative controls for rhomboid protein. The “Elution Control” bars represent yeast cells mock treated using the same set-up as in the Yeast Control set but with added elution buffer alone. This variation of control assays was designed to assess for potential toxic impacts when combining elution buffer and the listed drugs, as well any effects originating from components of the elution buffer itself. The composition of the elution buffer is provided above in Example 5. With the exception of Nys, these treatments represent the first step and occur for 45 minutes before the second step when exposure to fungicides takes place. Within each set of bars, where applicable, the second 15-minute step treatment occurred with a sub-lethal dose of Nys. After a total of one hour, the treated yeast cells were plated on non-selective YPD agar plates. Plates were grown 2-3 days at 27-30° C. and assessed for surviving cell numbers (measuring cell death). Images were also taken to document cell and colony growth characteristics.
# In the experimental assays, the sensitizing properties of At1g74130 or variants (sensitizing variants) were tested by adding 10 ug protein (At1g74130 or variants in elution buffer) to yeast cells (300-500 cells). To reiterate in all cases, the components were added to cultures and mixed for one hour, where Nys was added and incubated for the last 15 minutes of the treatment. Pre-treatment was designed to permit AmB and At1g74130 proteins to establish and work prior to adding Nys. After the one hour incubation, 500 cells were plated on non-selective YPD agar media and grown for 48 hours at 30′C.
# The sub-lethal levels of fungicides to use in these assays were determined using dosage experiments. These assays were conducted on yeast cells without added rhomboid proteins or variants. The dosages of AmB tested ranged from 0 to 5% (v/v). […] Likewise, the Nys level was determined using a range of 0.5 to 2.5%. Yeast cells were treated for one hour with fungicides in a total volume of 400 μl YPD media before plating.
# Since both the AmB buffer contained small quantities of detergent (deoxycholate being the main one), an experiment was done in which different amounts (1% and 10%) of deoxycholate were added to yeast cells to ascertain any effects. Adding deoxycholate had little effect on yeast.
# This set of yeast assays was conducted in the same manner described above (Example 13) and employed the same controls and combinations. […]
Molecule,sensitization of bacteria to tetracycline (bacteria),growth on minimal media-olive oil agar plates (Pseudomonas aeruginosa),lipase secretion (Pseudomonas aeruginosa; assay with elution buffer and variant),"yeast cell survival, variant added alone (yeast)","yeast survival, fungicidal agents together with variant protein (yeast)"
B1,increased the sensitivity,reduced,moderate impairment of lipase secretion,no effect,dramatically reduced yeast survival
B2,no activity,most potent impact,,no effect,dramatically reduced yeast survival
